Test results taken from the RNAGym collection of RNA variant scans (doi:10.7554/elife.80360).

B1: HDV Ribozyme (parent)
chain: GGCCGGCAUGGUCCCAGCCUCCUCGCUGGCGCCGGCUGGGCAACAUUCCGAGGGGACCGUCCCCUCGGUAAUGGCGAAUGGGACCCA

Variants of: B1
Experiment: self-cleavage, relative activity (ratio to wild type); higher = more cleavage; co-transcriptional

Point of comparison: G10C C14A, self-cleavage 0.237. Against it:
- G10C C22G — lower, 0
- G10C C22A — lower, 0.108
- G10C C22U — higher, 0.326
- G10C G34C — higher, 0.289
- G10C C18G — lower, 0.0594
- G10A U65C — higher, 0.769
- G10C C33G — lower, 0.145
- G10C C33U — higher, 0.696
- G10C A43U — higher, 0.415
- G10C A43G — higher, 0.317
- G10C A43C — lower, 0.219
- G10C A16C — higher, 0.88
- G10C G35C — lower, 0.102
- G10C G35A — higher, 0.525
- G10C C44G — higher, 0.415
- G10C C44A — higher, 0.615
- G10C U27A — higher, 0.939
- G10C U27G — higher, 0.798
- G10C C85G — higher, 0.76
- G10C C86U — higher, 1.03
- G10C C86G — higher, 0.538
- G10C U37G — higher, 0.262
- G10C C21A — lower, 0.0723
- G10C C21G — lower, 0.032
- G10C C21U — lower, 0.0256
- G10A U20A — lower, 0.0831
- G10C C75G — lower, 0.115
- G10C U60C — higher, 0.8
- G10C U60G — higher, 0.95
- G10A G53U — higher, 0.857
- G10U A43C — lower, 0.115
- G10U A43U — higher, 0.284
- G10U A43G — lower, 0.0604
- G10C A42C — lower, 0.142
- G10A U46C — higher, 0.397
- G10A U46A — higher, 0.506
- G10C G31U — lower, 0.219
- G10A U69A — higher, 0.677
- G10A U69G — higher, 0.554
- G10C U65A — higher, 0.665
- G10C U65G — higher, 0.997
- G10C C41G — higher, 0.437
- G10C C41U — higher, 0.692
- G10C C41A — higher, 0.767
- G10C G74U — lower, 0.166
- G10C G74C — lower, 0.161
- G10C G74A — lower, 0.119
- G10C C36A — lower, 0.0627
- G10C C36G — lower, 0.0831
- G10C C36U — higher, 0.554
- G10C G82C — lower, 0.0875
- G10C G82A — higher, 0.314
- G10C C62G — higher, 0.719
- G10C A70U — higher, 0.65
- G10C U23A — higher, 1.04
- G10C U23G — higher, 0.332
- G10C — higher, 0.935
- G10U — higher, 0.776
- G10C G28A — lower, 0.0723
- G10C G80A — lower, 0.166
- G10C G76A — higher, 1.2
- G10U A42G — higher, 0.325
- G10U A42C — lower, 0.149
- G10U A42U — lower, 0.174
- G10A U79C — lower, 0.0882
- G10A U79A — higher, 0.302
- G10C G53A — higher, 0.95
- G10C C32A — lower, 0.185
- G10C C32U — higher, 0.855
- G10A G80A — lower, 0.11
- G10A G80C — lower, 0.131
- G10A G80U — lower, 0.145
- G10C U69G — higher, 0.997
- G10C U69A — higher, 0.831
- G10C U69C — higher, 1.21
- G10C C13A — lower, 0
- G10C C13G — lower, 0.0723
- G10A U23C — higher, 0.554
- G10A U23G — lower, 0.181
- G10A U23A — higher, 0.596
- G10C U72C — higher, 0.289
- G10C U79A — higher, 0.277
- G10C U79G — higher, 0.346
- G10A G55A — higher, 0.831
- G10A G55U — higher, 0.698
- G10C C58G — higher, 0.917
- G10A G73C — lower, 0.19
- G10C A71G — higher, 0.906
- G10C A71C — higher, 0.802
- G10C A71U — higher, 0.767
- G10C G68A — higher, 0.706
- G10C G68C — higher, 0.705
- G10C C48U — higher, 0.911
- G10C C48A — higher, 0.853
- G10C C48G — higher, 1.17
- G10C G81U — lower, 0.196
- G10C G81C — lower, 0.214
- G10A G68C — higher, 0.453
- G10A G68U — higher, 0.562
- G10A G68A — higher, 0.604
- G10C G50A — higher, 0.997
- G10C G50U — higher, 0.956
- G10U A51C — higher, 1.09
- G10C U46G — higher, 0.346
- G10C U46C — higher, 0.475
- G10C U46A — higher, 0.525
- G10A U60G — higher, 0.748
- G10C A51G — higher, 0.72
- G10C A51U — higher, 0.923
- G10A U12A — lower, 0.0733
- G10A U12G — lower, 0
- G10A G59C — higher, 0.684
- G10A G59A — higher, 0.853
- G10C G52C — higher, 0.78
- G10C G29A — lower, 0.032
- G10C C26A — higher, 1.12
- G10C C26G — higher, 1.14
- G10C C61A — higher, 0.734
- G10C C61U — higher, 0.578
- G10C U12G — lower, 0
- G10C G40C — higher, 0.264
- G10C A77C — lower, 0.208
- G10C A77U — lower, 0.0554
- G10A G82U — higher, 0.36
- G10A G82A — lower, 0.176
- G10C C15G — lower, 0.0723
- G10C G25C — lower, 0.178
- G10C A87U — higher, 0.984
- G10C A78G — higher, 0.399
- G10C G38U — lower, 0.132
- G10C G38A — lower, 0.0692
- G10C G38C — lower, 0.0941
- G10C C84U — higher, 0.604
- G10C G39C — higher, 0.359
- G10C C66U — higher, 0.862
- G10C C66A — higher, 0.848
- G10C C66G — higher, 0.646
- G10C G59A — higher, 0.895
- G10C G59C — higher, 0.785
- G10C G54C — higher, 1.09
- G10C C57A — higher, 1.06
- G10C G73C — higher, 0.277
- G10A U47A — higher, 0.665
- G10A U47C — higher, 0.554
- G10A G74U — higher, 0.257
- G10A G74A — lower, 0.101
- G10C C24G — lower, 0
- G10A G81U — lower, 0.0468
- G10A G81C — lower, 0.22
- G10A G81A — lower, 0.187
- G10C G55U — higher, 0.831
- G10C G55C — higher, 0.759
- G10C A83U — higher, 0.465
- G10C A83C — lower, 0.0615
- G10C C19U — lower, 0.0264
- G10C C19G — lower, 0.0811
- G10C C19A — lower, 0.0563
- G10C C30G — lower, 0.212
- G10C C30A — lower, 0.107
- G10C G67U — higher, 0.782
- G10A U37A — lower, 0.0944
- G10A U37C — higher, 0.695
- G10A U37G — lower, 0.198
- G10C A45G — higher, 0.791
- G10U A16U — higher, 0.846
- G10C A56C — higher, 0.978
